Test [1] deals with hDAPK2 CD + ARD W305D, BiFC construct (human). Nature of the test: split reporter (BiFC, NanoBiT); bimolecular fluorescence complementation in HEK293T cells, readout normalized to protein expression; endogenous Ca2+/CaM present.
Test [2] deals with CrAsH-tagged calmodulin, calcium-bound (Ca^2+/CrAsH-CaM) (UniProt P0DP23). Nature of the test: fluorescence polarisation; fluorescence anisotropy, purified hDAPK2 CD + ARD variants titrated against Ca2+/CrAsH-CaM; KD estimated by non-linear regression, one-site specific binding (Prism), three experiments.
The target in test [3] is calcium/calmodulin on Sepharose 4B (Sepharose 4B-CaM) (UniProt P0DP23). In words: pull-down; CaM pull-down of hDAPK2 variants from transfected HEK293T cells on Sepharose 4B-CaM, EGTA-mediated elution, western blot, three replicates. (Immunoblotting shows a protein as a band on a membrane.)
Test [4] deals with hDAPK2 CD + ARD BL mutant (Arg47, Arg50, Arg53, Arg54 to glutamate) (human). Nature of the test: SAXS; EMBL P12 (PETRA-III), 2.0-15.0 mg/ml, 283 K; monomer/dimer equilibrium mixture fitted (OLIGOMER).
In test [5] the target is calcium/calmodulin on Sepharose 4B (Sepharose 4B-CaM) (UniProt P0DP23). In words: pull-down; CaM pull-down of purified hDAPK2 variants, SDS-PAGE with Coomassie blue staining, three repetitions.

Where only a bound is given, the exact number is not on record here.

As to “hDAPK2 CD + ARD W305D, BiFC construct (domain or fragment)”, the fold increase of the BiFC signal in test [1] was > 5 fold.
By Kd is commonly meant the free concentration of one partner at which half of the binding sites on the other are occupied at equilibrium, for simple one-to-one binding. As for “hDAPK2 CD + ARD S308A, L226R (domain or fragment)”, the equilibrium dissociation constant (Kd) in test [2] is < 3.5 nM.
For the substance “hDAPK2 CD + ARD W305D, L226R (domain or fragment)”, in test [2], the Kd was 2700 nM.
On the same count and under the same terms, under “hDAPK2 CD + ARD W305D, D220K (domain or fragment)” stands 9700 nM.
Take “hDAPK2 W305D D220K mutant expressed in HEK293T cells (CaM pull-down from lysate) (natural protein)”: the fold increase of Ca2+/CaM binding against hDAPK2 W305D in test [3] came to 2 fold.
Turning to “hDAPK2 CD + ARD BL mutant (Arg47, Arg50, Arg53, Arg54 to glutamate) (domain or fragment)”, in test [4], the percent monomer was 89%. The percent of the Ca2+/CaM binding of WT in test [5] was 46 % of WT.
Consider “hDAPK2 CD + ARD S308A, D220K (domain or fragment)”, for which the Kd in test [2] is < 3.5 nM.
